Holding throughout (test): cell_activity
In data set [1] the test system is ZF11xHunt-Kox-1 (ZF-Kox-1) (artificial (human Zif268 scaffold)).
The subject of data set [2] is ZF6xHunt-Kox-1 (artificial (human Zif268 scaffold)). The following applies: mRNA repression up to 2.5-fold (60%); protein 2-fold; STHdh cells 20 days.
Data set [3] concerns mZF11-ZF87 (mZF-ZF87, mZF-KRAB) (artificial (mouse Zif268 scaffold)). Particulars: R6/1 mice, 2 weeks after AAV injection; mZF-ZF87 design given as SEQ 50 (p342), legend of FIG. 13 cites SEQ 49.
Sequence of mZF11-ZF87 (mZF-ZF87, mZF-KRAB) (artificial (mouse Zif268 scaffold)) (chain, as listed by the source): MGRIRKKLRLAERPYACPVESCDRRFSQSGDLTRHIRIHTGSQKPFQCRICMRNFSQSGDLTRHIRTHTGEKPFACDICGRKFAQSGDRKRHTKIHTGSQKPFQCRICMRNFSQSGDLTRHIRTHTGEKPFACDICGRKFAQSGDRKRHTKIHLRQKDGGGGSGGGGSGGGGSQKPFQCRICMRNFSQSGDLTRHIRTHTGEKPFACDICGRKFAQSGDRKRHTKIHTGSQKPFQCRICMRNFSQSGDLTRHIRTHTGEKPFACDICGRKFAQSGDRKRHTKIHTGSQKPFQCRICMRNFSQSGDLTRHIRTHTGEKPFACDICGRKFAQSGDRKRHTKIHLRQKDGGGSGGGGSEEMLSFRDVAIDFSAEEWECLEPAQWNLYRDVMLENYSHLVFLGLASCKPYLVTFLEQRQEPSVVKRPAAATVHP

Sequence of ZF11xHunt-Kox-1 (ZF-Kox-1) (artificial (human Zif268 scaffold)) (chain, as listed by the source): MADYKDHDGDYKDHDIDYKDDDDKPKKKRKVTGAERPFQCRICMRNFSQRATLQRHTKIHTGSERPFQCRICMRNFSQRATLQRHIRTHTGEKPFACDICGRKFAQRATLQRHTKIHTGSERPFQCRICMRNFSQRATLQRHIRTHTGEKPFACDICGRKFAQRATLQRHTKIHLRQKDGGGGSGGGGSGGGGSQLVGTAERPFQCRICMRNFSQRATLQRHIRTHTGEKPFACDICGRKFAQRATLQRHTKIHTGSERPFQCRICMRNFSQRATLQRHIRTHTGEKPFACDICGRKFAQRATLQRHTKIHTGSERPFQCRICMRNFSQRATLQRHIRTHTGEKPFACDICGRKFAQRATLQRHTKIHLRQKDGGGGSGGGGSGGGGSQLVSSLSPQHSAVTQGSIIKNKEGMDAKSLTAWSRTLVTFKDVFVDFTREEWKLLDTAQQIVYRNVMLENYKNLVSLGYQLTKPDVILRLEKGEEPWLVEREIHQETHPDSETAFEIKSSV
Sequence of ZF6xHunt-Kox-1 (artificial (human Zif268 scaffold)) (chain, as listed by the source): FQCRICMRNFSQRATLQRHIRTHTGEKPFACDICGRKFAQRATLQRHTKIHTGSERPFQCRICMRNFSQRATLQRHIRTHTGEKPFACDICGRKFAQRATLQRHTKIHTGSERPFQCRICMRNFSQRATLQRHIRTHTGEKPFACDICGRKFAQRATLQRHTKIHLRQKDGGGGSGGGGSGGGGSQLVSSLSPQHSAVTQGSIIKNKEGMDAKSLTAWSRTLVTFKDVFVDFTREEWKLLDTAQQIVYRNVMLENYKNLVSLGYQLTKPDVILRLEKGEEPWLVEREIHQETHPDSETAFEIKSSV

Regarding chromosomal mutant Htt Q111 (STHdhQ111), the activity in data set [1] (almost 80% mRNA reduction, 95% protein reduction, STHdh cells 20 days) is 80 % reduction; in data set [2], 2.5 fold.
For “mutant HTT transgene in R6/2 or R6/1 mice”, the activity in data set [1] (R6/2 mice, 2 weeks after AAV injection, mRNA) is 35 % reduction; in data set [3], 30 % reduction.

(Values after US20190247519.)
